Reference: article PMC10786891, “Massively parallel profiling of RNA-targeting CRISPR-Cas13d”
Residue numbers refer to the chain shown, from its start. Names may count otherwise.

T1: EsCas13d, nuclease-dead (Eubacterium siraeum, UniProt B0MS50, R295A;H300A;R849A;H854A)
T1 sequence: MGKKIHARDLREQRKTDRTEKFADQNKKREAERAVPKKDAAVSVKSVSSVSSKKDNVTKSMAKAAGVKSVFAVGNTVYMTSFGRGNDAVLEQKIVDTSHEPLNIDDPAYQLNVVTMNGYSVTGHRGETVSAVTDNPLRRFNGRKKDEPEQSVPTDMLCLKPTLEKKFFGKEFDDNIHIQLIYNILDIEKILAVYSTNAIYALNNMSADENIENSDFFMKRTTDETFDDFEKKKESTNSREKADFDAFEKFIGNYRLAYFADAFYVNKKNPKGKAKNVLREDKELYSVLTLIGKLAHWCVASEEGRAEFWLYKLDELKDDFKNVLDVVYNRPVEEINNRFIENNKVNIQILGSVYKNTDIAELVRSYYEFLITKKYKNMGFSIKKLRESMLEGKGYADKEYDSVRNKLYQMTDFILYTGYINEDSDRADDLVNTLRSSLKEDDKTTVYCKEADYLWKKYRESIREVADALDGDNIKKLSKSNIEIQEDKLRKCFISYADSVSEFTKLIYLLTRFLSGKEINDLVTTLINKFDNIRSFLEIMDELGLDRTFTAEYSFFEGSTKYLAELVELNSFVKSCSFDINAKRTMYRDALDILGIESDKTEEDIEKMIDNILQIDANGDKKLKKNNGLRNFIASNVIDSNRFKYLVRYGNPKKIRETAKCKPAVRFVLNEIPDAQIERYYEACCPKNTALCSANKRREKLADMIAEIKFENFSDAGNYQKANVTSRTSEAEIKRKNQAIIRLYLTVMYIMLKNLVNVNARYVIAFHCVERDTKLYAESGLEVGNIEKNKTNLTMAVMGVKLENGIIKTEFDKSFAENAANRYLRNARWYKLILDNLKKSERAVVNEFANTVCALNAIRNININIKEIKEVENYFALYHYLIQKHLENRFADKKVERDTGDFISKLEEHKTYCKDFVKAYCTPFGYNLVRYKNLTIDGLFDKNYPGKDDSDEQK

B1: target 1 insG 3' of 20,insA 3' of 19 (mixed)
RNA 1: CACCCGUGCAAAAAUGCAGGGGUCUAAAACUGAGCGGAUAACCUCUCUAUGG
RNA 2: GGGAAUGGAUCCACAUCUACGAAUUCGUACCAGUAAGAGAGGUUAUCCGCUCACCGAGAUCGGAAGAGCACACGU
B2: target 1 insA 3' of 22,insG 3' of 16 (mixed)
RNA 1: B1 RNA 1
RNA 2: B1 RNA 2 with C31A, A32C, G33A, A36G, G37A, A38G
B3: target 1 insC 3' of 19,insA 3' of 11 (mixed)
RNA 1: B1 RNA 1
RNA 2: B1 RNA 2 with G33U, U34C, A36G, G37A, A38G, G39A, A40G, G42U, U43A
B4: target 1 insU 3' of 13,insU 3' of 6 (mixed)
RNA 1: B1 RNA 1
RNA 2: B1 RNA 2 with G33U, U34A, A35G, A40U, G42U, U44A, A45U, U46C, C48U
B5: target 1 del11,del15 (mixed)
RNA 1: B1 RNA 1
RNA 2: GGGAAUGGAUCCACAUCUACGAAUUCGUACCAUAGAAGGUAUCCGCUCACCGAGAUCGGAAGAGCACACGU
B6: target 1 complement block 2-11 (mixed)
RNA 1: B1 RNA 1
RNA 2: GGGAAUGGAUCCACAUCUACGAAUUCGUACCAUAGAGAGGAAUAGGCGAGACCGAGAUCGGAAGAGCACACGU
B7: target 1 G12A,G13A (mixed)
RNA 1: B1 RNA 1
RNA 2: GGGAAUGGAUCCACAUCUACGAAUUCGUACCAUAGAGAAAUUAUCCGCUCACCGAGAUCGGAAGAGCACACGU
B8: target 1 insA 3' of 7,insC 3' of 1 (mixed)
RNA 1: B1 RNA 1
RNA 2: GGGAAUGGAUCCACAUCUACGAAUUCGUACCAUAGAGAGGUUAUCACGCUCACCCGAGAUCGGAAGAGCACACGU
B9: target 1 insC 3' of 19,insA 3' of 6 (mixed)
RNA 1: B1 RNA 1
RNA 2: GGGAAUGGAUCCACAUCUACGAAUUCGUACCAUCAGAGAGGUUAUCCAGCUCACCGAGAUCGGAAGAGCACACGU
B10: target 1 insU 3' of 15,insA 3' of 4 (mixed)
RNA 1: B1 RNA 1
RNA 2: B9 RNA 2 with C34A, A35G, G36A, A37G, G38U, A48G, G49C, C50A
B11: target 1 C4U,U11C (mixed)
RNA 1: B1 RNA 1
RNA 2: B7 RNA 2 with A39G, A40G, U41C, C48U
B12: target 1 C6U,C7G (mixed)
RNA 1: B1 RNA 1
RNA 2: B7 RNA 2 with A39G, A40G, C45G, C46U
B13: target 1 insG 3' of 19,insA 3' of 5 (mixed)
RNA 1: B1 RNA 1
RNA 2: B9 RNA 2 with C34G, A48G, G49A
B14: target 1 complement block 1-11 (mixed)
RNA 1: B1 RNA 1
RNA 2: B6 RNA 2 with A51U
B15: target 1 insG 3' of 18,insA 3' of 15 (mixed)
RNA 1: B1 RNA 1
RNA 2: B1 RNA 2 with G33U, U34A, A35G, A36G, G37A, A38G, G39A
B16: target 1 G5C,A20C (mixed)
RNA 1: B1 RNA 1
RNA 2: B7 RNA 2 with A32C, A39G, A40G, G47C
B17: target 1 insA 3' of 15,insA 3' of 15 (mixed)
RNA 1: B1 RNA 1
RNA 2: B1 RNA 2 with G33U, U34A, A35G, G39A
B18: target 1 insG 3' of 19,insA 3' of 12 (mixed)
RNA 1: B1 RNA 1
RNA 2: B9 RNA 2 with C34G, U42A, A44U, U45A, C46U, A48C
B19: target 1 insG 3' of 18,insU 3' of 5 (mixed)
RNA 1: B1 RNA 1
RNA 2: B9 RNA 2 with C34A, A35G, A48G, G49U
B20: target 1 insA 3' of 22,insC 3' of 5 (mixed)
RNA 1: B1 RNA 1
RNA 2: B9 RNA 2 with C31A, A32C, U33A, C34U, A48G, G49C
B21: target 1 insU 3' of 18,insU 3' of 7 (mixed)
RNA 1: B1 RNA 1
RNA 2: B9 RNA 2 with C34A, A35U, C47U, A48C
B22: target 1 insA 3' of 6,insU 3' of 5 (mixed)
RNA 1: B1 RNA 1
RNA 2: B8 RNA 2 with A46C, C47A, C49U, U50C, C51U, A52C, C53A
B23: target 1 C6U,A9G (mixed)
RNA 1: B1 RNA 1
RNA 2: B7 RNA 2 with A39G, A40G, A43G, C46U
B24: target 1 C7U,U8C (mixed)
RNA 1: B1 RNA 1
RNA 2: B7 RNA 2 with A39G, A40G, U44C, C45U
B25: target 1 insA 3' of 17,insU 3' of 6 (mixed)
RNA 1: B1 RNA 1
RNA 2: B9 RNA 2 with C34A, A35G, G36A, A48U
B26: target 1 insU 3' of 20,insU 3' of 2 (mixed)
RNA 1: B1 RNA 1
RNA 2: B9 RNA 2 with C34U, A48G, G49C, C50U, U51C, C52U
B27: target 1 A1C,C6A (mixed)
RNA 1: B1 RNA 1
RNA 2: B7 RNA 2 with A39G, A40G, C46A, A51C
B28: target 1 insU 3' of 18,insU 3' of 2 (mixed)
RNA 1: B1 RNA 1
RNA 2: B9 RNA 2 with C34A, A35U, A48G, G49C, C50U, U51C, C52U
B29: target 1 C7A,G15A (mixed)
RNA 1: B1 RNA 1
RNA 2: B7 RNA 2 with G37A, A39G, A40G, C45A
B30: target 1 insU 3' of 1,insU 3' of 1 (mixed)
RNA 1: B1 RNA 1
RNA 2: B8 RNA 2 with A46C, C47G, G48C, C49U, U50C, C51A, A52U, C53U
B31: target 1 complement block 4-12 (mixed)
RNA 1: B1 RNA 1
RNA 2: B6 RNA 2 with G40C, A49U, G50C
B32: target 1 insC 3' of 8,insA 3' of 7 (mixed)
RNA 1: B1 RNA 1
RNA 2: B8 RNA 2 with A46C, C47A, G48C, C49G, U50C, C51U, A52C, C53A
B33: target 1 insC 3' of 17,insC 3' of 16 (mixed)
RNA 1: B1 RNA 1
RNA 2: B1 RNA 2 with G33U, U34A, A35G, A36C, G37A, A38C
B34: target 1 insG 3' of 22,insC 3' of 22 (mixed)
RNA 1: B1 RNA 1
RNA 2: B1 RNA 2 with C31G, A32C, G33C, U34A, A35U

biological target: T1, EsCas13d, nuclease-dead; assay: crRNA (strand 1, pre-loaded); Mg2+; 40 mM Tris-HCl pH 7.5, 150 mM NaCl, 6 mM MgCl2, 1 mM DTT, 0.1% Tween-20, 0.2 mg/ml BSA; 25 C; 10 min per concentration, then washed; details: tags: His6-TwinStrep-SUMO cleaved; N-terminal SNAP kept (SNAP-Surface 488); label: 3' end held by stalled T7 RNA polymerase

Compared with B1, B2 is 1.7-fold lower in Kd: 45 ± 7 nM for the first, 26.3 ± 2.6 nM for the second.

Compared with B3, B4 is 5.5-fold lower in Kd: 98 ± 16 nM for the first, 17.9 ± 1.3 nM for the second. The second binds more tightly here.

Compared with B5, B6 is 2.8-fold lower in Kd: 35 ± 5 nM for the first, 12.3 ± 0.33 nM for the second.

B7 and B8 are within error of each other in Kd: 5.2 ± 0.23 nM for the first, 5.8 ± 0.4 nM for the second.

Going from B9 to B10, the Kd falls from 38.2 ± 2.2 nM to 9.4 ± 0.8 nM (4.1-fold).

First: B11
Second: B12
The Kd of the first is 3.4-fold higher: 27 ± 5 nM for the first, 7.9 ± 0.8 nM for the second. The second binds more tightly here.

Going from B13 to B14, the Kd falls from 42 ± 5 nM to 13.3 ± 0.5 nM (3.2-fold). The second binds more tightly here.

B15 and B16 are within error of each other in Kd: 61 ± 10 nM for the first, 47 ± 7 nM for the second.

Compared with B17, B18 is 13-fold higher in Kd: 6.1 ± 0.5 nM for the first, ~80 nM for the second.

Going from B19 to B20, the Kd falls from 65 ± 11 nM to 27.7 ± 3.5 nM (2.3-fold).

B21 and B22 are within error of each other in Kd: 47 ± 4 nM for the first, 41 ± 5 nM for the second.

Compared with B23, B24 is 1.6-fold lower in Kd: 14.2 ± 0.9 nM for the first, 8.7 ± 0.5 nM for the second.

B25 and B26 are within error of each other in Kd: 14.5 ± 0.8 nM for the first, 16.3 ± 1.6 nM for the second.

First: B27
Second: B28
The Kd of the first is 3.7-fold lower: 7 ± 0.5 nM for the first, 25.8 ± 2.4 nM for the second.

B29 and B30 are within 1.5-fold of each other in Kd: 14.6 ± 0.5 nM for the first, 11.3 ± 0.9 nM for the second.

B31 and B32 are within 1.5-fold of each other in Kd: 19.6 ± 1.3 nM for the first, 15 ± 0.6 nM for the second.

Compared with B33, B34 is 3-fold lower in Kd: 27.3 ± 1.6 nM for the first, 9.1 ± 0.4 nM for the second. The second binds more tightly here.
